Source: article PMC7556843, “The dynamics of linear polyubiquitin” (Science Advances, 2020)

Tests used:
[1] = biological target: T1, linear (M1-linked) triubiquitin (UniProt P0CG48 1-76; P0CG48 1-76; P0CG48 1-76); experiment: ITC; NEMO titrated into Ub3 or Ub4 in the cell; 298 K; 50 mM sodium phosphate pH 7.0, 50 mM NaCl; triplicate; conditions: both partners purified
T1 construct: ubiquitin, 76-residue unit, first of three joined head to tail (residues 1-76 of the chain); ubiquitin, 76-residue unit, second of three (residues 77-152 of the chain); ubiquitin, 76-residue unit, third of three (residues 153-228 of the chain); Construct was a gift of P. Elliott and D. Komander; no tag or extra residues are told; One polypeptide of three ubiquitin units linked M1 to C-terminus; …
T1 sequence (P0CG48 1-228, one chain of several): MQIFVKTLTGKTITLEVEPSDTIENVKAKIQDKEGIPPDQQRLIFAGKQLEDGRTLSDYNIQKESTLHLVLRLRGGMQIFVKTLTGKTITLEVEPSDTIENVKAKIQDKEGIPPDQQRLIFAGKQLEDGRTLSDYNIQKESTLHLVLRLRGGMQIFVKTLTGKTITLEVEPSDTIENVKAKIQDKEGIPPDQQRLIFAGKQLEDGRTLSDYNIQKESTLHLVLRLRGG

[2] = biological target: T2, linear (M1-linked) tetraubiquitin (UniProt P0CG48 1-76; P0CG48 1-76; P0CG48 1-76; P0CG48 1-76); experiment: as above; conditions: both partners purified
T2 construct: ubiquitin, 76-residue unit, first of four joined head to tail (residues 1-76 of the chain); ubiquitin, 76-residue unit, second of four (residues 77-152 of the chain); ubiquitin, 76-residue unit, third of four (residues 153-228 of the chain); ubiquitin, 76-residue unit, fourth of four (residues 229-304 of the chain); Construct was a gift of P. Elliott and D. Komander; no tag or extra residues are …
T2 sequence (P0CG48 1-304, one chain of several): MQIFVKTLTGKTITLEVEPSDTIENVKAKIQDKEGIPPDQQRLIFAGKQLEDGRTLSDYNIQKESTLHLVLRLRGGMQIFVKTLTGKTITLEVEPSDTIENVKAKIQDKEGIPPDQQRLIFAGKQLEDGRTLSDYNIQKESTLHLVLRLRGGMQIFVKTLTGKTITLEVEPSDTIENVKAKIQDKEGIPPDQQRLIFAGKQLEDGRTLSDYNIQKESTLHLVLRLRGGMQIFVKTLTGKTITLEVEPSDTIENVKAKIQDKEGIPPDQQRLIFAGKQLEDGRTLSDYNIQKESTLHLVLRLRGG

[3] = biological target: T1, linear (M1-linked) triubiquitin; experiment: SEC-MALS; SEC (Superdex 200 10/300 GL, 4°C) with static light scattering (right-angle, Viscotek TDA 305, 30°C); about 8 mg/ml; 50 mM tris-HCl, 300 mM NaCl pH 8.0 and 50 mM sodium phosphate, 50 mM NaCl pH 7.0; conditions: both partners purified
[4] = biological target: T2, linear (M1-linked) tetraubiquitin; experiment: as above; conditions: both partners purified
[5] = biological target: the molecule itself; experiment: as above
[6] = biological target: T1, linear (M1-linked) triubiquitin; experiment: SPR; Ub3 and Ub4 immobilised by amine coupling (456 and 721 RU); NEMO injected in a twofold series; 25°C; 50 mM sodium phosphate, 50 mM NaCl, 0.005% Tween 20, pH 7; equilibrium responses fitted to a 1:1 Langmuir isotherm; conditions: both partners purified
[7] = biological target: T2, linear (M1-linked) tetraubiquitin; experiment: as above; conditions: both partners purified

B1: Human NEMO258-350 C347S (NEMO UBAN domain) (domain or fragment, UniProt Q9Y6K9 258-350, looked up)
chain: MQLEDLKQQLQQAEEALVAKQEVIDKLKEEAEQHKIVMETVPVLKAQADIYKADFQAERQAREKLAEKKELLQEQLEQLQREYSKLKASSQES
notes: NEMO (IKKγ, NF-κB essential modulator), human, residues 258-350 (UBAN domain) with C347S; also called NEMO mutant (C347S); IKKγ; source: expressed and purified as described in Vincendeau et al. (23)
Kd [1]: 1.6 µM | dH [1]: -4.28 kcal/mol | Kd [2]: 4.1 µM | dH [2]: -4.49 kcal/mol | stoichiometry N [3]: 2 NEMO:Ub3 | stoichiometry N [4]: 2 NEMO:Ub4 | binding result [5]: binds | Kd [6]: 9.6 µM | Kd [7]: 6.4 µM
